Test: soluble on expression in E. coli; label from the status in PepcDB or PDB records

Sequence | soluble on expression in E. coli
MEPHLKIDVSSASGSTTTGATASTSEAPQDSQAQQTMPPPSSDWSNQFNSPEAEDMGPFVEQLLPFVRASAYNWFHLQAAKRRHFKEFDKKMCASEENAKLAELQNDRDELKVKWASRLLGKIKKDIQNDDKEAFISAINGSEPNKCIISVADQKGKMRRIDCLRQADKVWRLDLVTIILFKGIPLESTDGERLERSEACVHPLCINPFHMAISVRGLDVFMANYLKDVDTKITLTYPRNDELSDTVMVKQEPGEQTIVAPHAVLGTSSTHTRVWETNSERNAETIIITYDPQKACHTYFGGRATLAQQSLSAGNTYMVNKTAVDNNFFNAKRSVLCLPPPPIQNCFPYPIAGTSDSQQMDMSEDSNDGPSEKRSRDISSHDSPNSSTNDEVRRIVESGTEKLVLGSSIWAAPGQFSRTQQNQGAPGTSRQVRPLPDFQSQDSARSPGAFRSTAKPVCRMTVNTGNHGDVGVVVVDERNREHVIHAQHIVNALSSLRTTPSMRESPVGRKRMHPHTSNSFEFLNCNQEMNKNEGALGSDISPTHTAVSNLISRESSGYMASPTKFTTARGDTTSFSKIFQKIEEKHLQHNQPSTSYCNSQIQPPILSSKPVDSSVKLIAPVAVKPIMSGCNSIIPSPITTPRITPSFRMLEDDSLINVLGQLAHSNDGTTLNDSFIQHLIDTNSRSPLLSSGNAFSALSMGARIEFVGCSNGIGRSSKYCTGRPANSKCNVTSSSRAANQAPVSNTPQDPNAPKLPTDFSHALRNEKK | not soluble
MGSDKIHHHHHHMSARLDAQIAFLKQADRLKSVERANVLLDLSRPENSAEHSWHLALWALVLSPFAAPDVDVDRAIRMLLLHDLVEIETGDHPIHEVTDWQAVERAERAAARKLFGLLPPDQAADFHTLWTEFDADETADARYAKMLDRCQPMFQVLCADTPRPDHVEVVRENLSSGRAAYLAEAFPEAHAHARALLERHPPVTGGFGDRLEFLAEADRLKTVLRASRLMDDSRFENSAEHSWHIMLYAWVLGEYAAAPVDIDRVLRMLLLHDLVEIDAGDNPIHGNVDHAAQEALEAAAAERLFGLLPPDQGAGLRAIWQEFETAQSADALFGKAVDRVQTPIANLENGGGSWVTYDVSLQQLVARVGTPVSRGAPGLWDWLFPQLSDCFTRLGLRL | not soluble
MTGFSISMDLAPKQSRSDRSTHEGTVEQRLKFFMQDVTGRALVMMESATQGQHGIAMDLVQEAFIALHKSYADKATDEWYPLFYTILNNKLQDWRRKEARRSNPFSFFKKVSLDSDEEVTDVVDETTPNPFEFLDQAVTIEEIQAAIAQLPVRQQQAFMLRAWEGFDTQTTAQIMNCSEGSVKTHYHRAIQGLRASLAHLNPSLGGSSDESR | not soluble
MGHHHHHHSHMPDHGDWTYEEQFKQLYELDGDPKRKEFLDDLFSFMQKRGTPVNRIPIMAKQVLDLFMLYVLVTEKGGLVEVINKKLWREITKGLNLPTSITSAAFTLRTQYMKYLYPYECEKRGLSNPNELQAAIDSNRREGRR | soluble
MLRIAKEALTFDDVLLVPAHSTVLPNTADLSTQLTKTIRLNIPMLSAAMDTVTEARLAIALAQEGGIGFIHKNMSIERQAEEVRRVKKHESGVVTDPQTVLPTTTLHEVKALTERNGFAGYPVVTEDNELVGIITGRDVRFVTDLNQPVSVYMTPKERLVTVREGEAREVVLAKMHEKRVEKALVVDDNFHLLGMITVKDFQKAERKPNSCKDEQGRLRVGAAVGAGAGNEERVDALVAAGVDVLLIDSSHGHSEGVLQRIRETRAKYPDLQIIGGNVATGAGARALAEAGCSAVKVGIGPGSICTTRIVTGVGVPQITAVSDAVEALEGTGIPVIADGGIRFSGDIAKAIAAGASAVMVGSMLAGTEESPGEIELYQGRSYKSYRGMGSLGAMSKGSSDRYFQSDNAADKLVPEGIEGRVAYKGRLKEIIHQQMGGLRSCMGLTGCATIDELRTKAEFVRISGAGIQESHVHDVTITKESPNYRLGS | not soluble
MNNFVKLGLTTGVVLSAIIPYGGVHAATEDLKVETKEDTFRTGNLTAPSQKSAENVVKDALKGKTEQALSSKQVNTESKVNYNVTQSRKSYDGTTLVRLQQTYEGRDVYGYQLTAHINDDGVLTSISGDSAQDLQQQEDLKQPIILSEEDAKKQLFKIYGDNLTFVEEPEIKQVVYVDENTNKATNAYQITFSASTPEYVSGTVLIDAFVGDLLKELVQKLGIQVDSSIVQSATANKSQDPSKLTGTGKDDLGMNRTFGITQRSDGTYTLADYSRGKGIETYTANYKDYNNYRRNVWGYLDDLVTSNSTNFTDPKAVSAHYLATKVYDFYKEKYSRNSFDNNGQKVISVVHGWNTNGKNIGNPKQWFNAFSNGAMLVYGDPIVRAFDVAGHEFTHAVTRNESGLEYAGEAGAINEALSDILGVAVEKYANNGKFNWTMGEQSGRIFRDMKNPSSISSRYPEDYRHYNNLPIDADHDYGGVHTNSSIINKVAYLIASGGNHNGVNVQGIGEDKMFDIFYYANTDELNMTSDFKELKEACIRVAMNLYGKDSLEVQAVQQAFKAAYI | not soluble
MGSDKIHHHHHHAYFFNVAFVPGQKSVLNKYSSKKKKDPFAQNKKWYADAKKEQWYIKSASSNYCLDANYIPKKNSHKTAVLLHGFMNNKDTMAPYAAMFHQLGYNVLIPDARAHGKSQGKYIGYGWPEKYDVQKWVKKDIAEKGKKQKIVIFGVSMGGATTMMTSGLKMPKQVKAYIEDCGYTDVKSEFLYEAKDIYKMPKLVASSAVAILSGVSKANLGFYLGDASAVNQLKKNKLPMMFIHGSKDNFVPTKMVYQNYKATNGPKELWIAEKAAHARSFETYPREYKARVSKFLNKYV | not soluble
AVGTPITISVPSLPYANSASEIVLSQLRDIGFDVRLESTEFPSVWLSKVYKAKDYDMSVVAHVEARDIPNLFGNPDYYLGFDDEQVRELLAQADSGDADSYVSTMKKVVNRIMDQAGADTLFNLPNIVVTQPDVSGVPTNLVADGLVVSNISRSED | not soluble
MGQEVSLLAVKTEPLNSSETTATTGDGALDTFTGSVITSSGYSPRSAHQYSPQLYPSKPYPHILSTPAAQTMSAYAGQTQYSGMQQPAVYTAYSQTGQPYSLPTYDLGVMLPAIKTESGLSQTQSPLQSGCLSYSPGFSTPQPGQTPYSYQMPGSSFAPSSTIYANNSVSNSTNFSGSQQDYPSYTAFGQNQYAQYYSASTYGAYMTSNNTADGTPSSTSTYQLQESLPGLTNQPGEFDTMQSPSTPIKDLDERTCRSSGSKSRGRGRKNNPSPPPDSDLERVFVWDLDETIIVFHSLLTGSYAQKYGKDPPMAVTLGLRMEEMIFNLADTHLFFNDLEECDQVHIDDVSSDDNGQDLSTYSFATDGFHAAASSANLCLPTGVRGGVDWMRKLAFRYRRVKELYNTYKNNVAGLLGPAKRDAWLQLRAEIEGLTDSWLTNALKSLSIISTRSNCINVLVTTTQLIPALAKVLLYSLGGAFPIENIYSATKIGKESCFERIMQRFGRKVVYVVIGDGVEEEQAAKKHNMPFWRISSHSDLLALHQALELEYL | not soluble
MEKILEKIEEFFGFIPEIFKVLEDEPEILEAYYDKMEKILSNDALPLVTKELIGVGAAAALGSEHCLKTHIKAAKRLDAGGDEILLAILIGASMAESTALSRSLRVFKEERMDL | not soluble
MSWIPFKIGQPKKQIVSKTVERDFEREYGKLQQLEEQTKRLQKDMKKSTDADLAMSKSAVKISLDLLSNPLCEQDQDFLRMVTALDTAMKRMDAFNQEKVNQIQKTVIEPLKKFGSIFPSLNMAVKRREQALQDYGRLQAKVEKYEEKEKTGPVLAKLHQAREELRPVREDFEAKNKQLLDEMPRFYNSRLDYFQPSFESLIRAQVIYYSEMHKIFGDLTQQLDQPGHSDEHRERENETKLSELRALSIVADD | not soluble
MSLMASAVAEENAERSKEGFIEGSEVNLLLRNFYFNRDFRKGQSSPAGGGYTEEWVQGFMANFSSGFTQGTLGVGIDAFAQLGVRLDSGGGRSGAGGSVDLLPYDDQGRPQDDYSRAGGAVKLRWYGTVLRVGDVFPETPVIQYGNSRLFPSSFRGFTLVNDSLAKGLTLQAGKLNSMTQPNSTSGSDDFYSFYTGRRIDSPWVAYAGGDYQATEHWSVSLYGSRQKDAWDQYYAGTSFNYPLDDKLSLLGGANYYKVKDQGRQVMGELDNDIWSVRGGFAYGPHQVLLSYQRNNGDDDFDYLRQTDSIYLDNSIQYSDFNSPKERSLMLRYDLDMAAFGVPGLSFMTRYGKGWDADYSNANSVYMRTDANGNPLTNQGRWERDVEVKYVVQGGAAKDLAFRVRQATVRSDSFESDLDEVRLIVEYPLQVLEGHHHHHH | not soluble
MADSIASIGNRYIDNNDTDMHFLRTWAVRRCQHTDWDICERIRLGELKEARDRAAQMEKTMRWWSSCTADWRNRWSAVRDERNRAREEAETLRLNYDLLLEEKRFLAEQLYHVDSESDEPKLEISQKPEIDGTKRNAVVQTIHSISCDPPSILVKSYSAAQIEAVLREPSVDEPPVETTKSDINEELKAENEFLKDQANELNKCREKIETDGKTIQDLRLRIQSMERELMAAKNSKRASSS | not soluble
MTQLATICYIDNGDSLLLLHRNKKENDVHKGKWISVGGKLEAGETPDECARREILEETHLTVTEMAFKGIITFPEFTPGHDWYTYVFKVTGFEGDLISDEESREGTLEWVPYDQVLEKPTWEGDYDIFKWILEDRSFFSAKFTYDQNNQLMDKSVTFY | not soluble
MGETAGREHGTVTRSAEYIGSFPVDDSCLDDQIQQLHTQLKSLKNCKSKRTVSLRFSVKGVKVYDEDETTLLMAHAMCRVSLSTARPSDAQFAFASHNPGNSDAQLYCHLFRARHARAAQFLNLLLCRCFQLYFLEKHPEEAQEECSGKKPSRAPSLLNQGFPLSVSALVSFRRAPTQGLLPGAKLFSQQSTEQVSSPEEGPTSSPTIVRKMAIRTKELRSGAYRSFTFTPLKQRHLQDKLSAPQGGMSVHRTLSRLKEFLRKGTSHCKGMHVSSSQFGRNRRSTGSSCVVLGWRV | not soluble
YLYLEITNRCNLKCEMCFKQYWEDKEGDMDWDLFLKILDDAKEFPELKMIYFGGIGEPSVHPRFMDMVREVKRRGFRLGMSTNGVLLEDKILEEFVKLGVDVVYFSMDAIPTPSNIVTLGHITSKVVESRIKKLVELKKRYKTEKPTIGVEVVATKENYKQLPEMAIYLRNLGVDSMLISNLIPMTKEH | not soluble
MGSDKIHHHHHHMIFINSRFLTQDVSGVQRYAEQMCRALQRLRNDLIFVAPRNIRLHDCAKALDVQHIGHATGHLWEQVDLPLHLKRKGNPLLVSISNTGPMFYANQIATHHDINYVRYPQSYTRLFRLAYRTITPILLSRARTLITGSSFSRGEIASFYGYAEDKVLVLPAAVSDDFTPRAVHRDQPDYLLAVSSPAAHKNFNRMIQAFLSLRGHADLQLHIVGAASSLFADPNLQRLACRDPRIRFLGRLSDAELIEQYQGASAFVFPSLYEGFGIPPLEAQACGCPVLAANAASIPEVLQASALYFDPLDVSHMAAAMHRVLSDAPLRQALRRQGLKNVQRFSWEISAQRLSQRIDALLEPAVQGKHHVAPESSPGKP | not soluble
MVDNTSLSFEQIADFCGLHPLEVRGIADGEVARDIRGADPIGNGQLNREELDRAQANPDYRMKALVSRHAELLKPAKKAPRYTPVSRRQDRPDAIAWFLRHHPEVTDAQISKILGTTKATIEQVRARTHWNAANIKPVDPVTLGLVGQLELDALVKKAAEKKAKDDLKKGIVPEDPTLRPASEAGQFEPEVEEEEEDFRAPRGDLKAEDVFGKSTGYVDEEDEDLEHHHHHH | soluble
MAHHHHHHMPAVKWSSPVVRNELMSLTRLPAEMQRAAAAAVAAHKNAYSPYSNFSVGAALLHDDGSVTAGCNYENCTLQSCCAERCAIVRANVEGHRRANAVAVYGRSYGAATPTNPPPVDALCPPCGLCRQLLVEVADLSQNFEEFMVVLVALDAQRAKVVRLADLVPAKFGPADIGMDVTQLGCHPSA | not soluble

Source: the DeepSol protein solubility set
